Results from patent US20180022822A1 (MABIMMUNE DIAGNOSTICS, published 2018).
Positions count from the first letter of the chain named.

B1: NI-206.18H2 (antibody, V domains shown)
VH: QVQLQESGPRLVKPSETLSLTCTVSGYSISNGYYWGWIRQPPGQGLEWIASVWHSGNTYHNPSLKSRVTILVDTLKNQFSLNLKSVTAADTALYYCARSYTRNDVGAFETWGQGTMVTVSS
VL: SYELTQPPSVSVSPGQTARIACSGDELPKRYAYWYQQKSGQAPVLVMYEDTKRPSGIPERLSGSSSGTVTTLTISGAQVEDEADYYCYSTAPSGNHTFVFGTGTRVTVL
notes: Recombinant complete human IgG1; Cy5-labelled in flow cytometry
B2: NI-206.22F7 (antibody, V domains shown)
VH: EVQLVETGGGVVQPGRSLRLSCAASGFSFSTHGMYWVRQPPGKGLEWVAVISYDGSDKKYADSVKGRFTISRDNSKNTVYLEMSSVRAEDTALYYCFCRRDAFDLWGQGTMVTVSS
VL: SYVLTQPPSVSVSPGQTARITCSGDALPKKYAYWYQQKSGQAPVLVIYEDTKRPSGIPERFSGSSSGTMATLTISGAQVEDEADYYCYSTDSSGNYWVFGGGTEVTVL
notes: Recombinant complete human IgG1
B3: NI-206.59B4 (antibody, V domains shown)
VH: QVQLVQSGAEVKKPGASVKVSCKTSGYTFTDYYIHWVRQAPGQGLEWMGWINPNRGGTNYAQKFQGRVTMTRDTSIATAYMELSRLRSDDTAVYYCATASLKIAAVGTFDCWGQGTLVTVSS
VL: SYELTQPPSVSVSPGQTARITCSGDALSKQYAFWFQQKPGQAPILVIYQDTKRPSGIPGRFSGSSSGTTVTLTISGAQADDEADYYCQSADSSGTYVFGTGTKVTVL
notes: as for B1
B4: NI-206.27E8 (antibody, V domains shown)
VH: EVQLVESGGGLVEPGGSLRLSCAASGFTFSDAWMNWVRQAPGKGLEWVGRIKTKSDGGTTDYAAPVRGRFSISRDDSKNTLFLEMNSLKTEDTAIYYCFITVIVVSSESPLDHWGQGTLVTVSS
VL: SYELTQPPSVSVSPGQTARITCSGDELPKQYAYWYQQKPGQAPVLVIYKDRQRPSGIPERFSGSSSGTTVTLTISGVQAEDEADYYCQSAYSINTYVIFGGGTKLTVL
notes: as for B1
B5: NI-206.12G4 (antibody, V domains shown)
VH: EVQLVESGGGLVKPGGSLRLSCAASGFTFSDYYMSWIRQAPGKGLEWISYISSGSSYTNYADSVKGRFTISRDNAKKSVYLEVNGLTVEDTAVYYCARVRYGDREMATIGGFDFWGQGTLVTVSS
VL: B4 VL with E26A, K38S, R51S, Q52E, Y91D, I93G, N94G, Y96S, V97R
notes: as for B1
B6: NI-206.17A6 (antibody, V domains shown)
VH: QVQLQESGPGLVRSTETLSLTCLVSGDSINSHYWSWLRQSPGRGLEWIGYIYYTGPTNYNPSLKSRVSISLGTSKDQFSLKLSSVTAADTARYYCARNKVFWRGSDFYYYMDVWGKGTTVTVSS
VL: EIVLTQSPGTLSLSLGERATLSCRASQSLANNYLAWYQQKPGQAPRLLMYDASTRATGIPDRFSGSGSGTDFTLTISRLEPEDFAVYYCQQFVTSHHMYIFGQGTKVEIK
notes: Recombinant complete human IgG1 with a kappa light chain
B7: NI-206.6D3 (antibody, V domains shown)
VH: EVQLVESGGGLVKPGESLRLSCAASGFTFSKAWMNWVRQGPGKGLEWVGRVKSKTDGGTTDYAAPVKGRFTISRDDSKDTVFLQMNSLKTEDTAVYYCSIQFIVVGDRGRDDQYMDVWGKGTTVTVSS
VL: SYVLTQPPSVSVSPGQTARITCSGDALPKQYAFWYQQKPGQAPVIMIYKDNQRPSGIPERFSGSSSGTTVTLTISGVQTEDEADYYCQSADSTNTHVVFGGGTKLTVL
notes: as for B1
B8: NI-206.20A8 (antibody, V domains shown)
VH: EVQLVESGGGLVQPGGSLKLSCAGSGLDLSASAVHWVRQASGKGLEWIGRIRSKPNHYATTYLASVRGRFILSRDDSENTAYLQMNSLRTEDTAVYYCRIGILNSDHWGRGTLVTVSS
VL: QSVLTQPPSASGTPGQTVIISCSGSSSNLGRKTLNWYQQLPGAAPKLLIFKNDQRASGVPDRFSASKSGTSASLTISGLQSDDEADYYCGTWDDSLDNWVFGGGTKVTVL
notes: as for B2

Assays:
[1] = target: T1, recombinant human Fibroblast Activation Protein (FAP) with N-terminus 6x histidine tag (human, UniProt Q12884 26-760); experiment: capture ELISA: His-tagged rFAP captured by coated anti-His antibody (sFAP)
T1 construct: Bought protein; also called rFAP; rhFAP
T1 sequence: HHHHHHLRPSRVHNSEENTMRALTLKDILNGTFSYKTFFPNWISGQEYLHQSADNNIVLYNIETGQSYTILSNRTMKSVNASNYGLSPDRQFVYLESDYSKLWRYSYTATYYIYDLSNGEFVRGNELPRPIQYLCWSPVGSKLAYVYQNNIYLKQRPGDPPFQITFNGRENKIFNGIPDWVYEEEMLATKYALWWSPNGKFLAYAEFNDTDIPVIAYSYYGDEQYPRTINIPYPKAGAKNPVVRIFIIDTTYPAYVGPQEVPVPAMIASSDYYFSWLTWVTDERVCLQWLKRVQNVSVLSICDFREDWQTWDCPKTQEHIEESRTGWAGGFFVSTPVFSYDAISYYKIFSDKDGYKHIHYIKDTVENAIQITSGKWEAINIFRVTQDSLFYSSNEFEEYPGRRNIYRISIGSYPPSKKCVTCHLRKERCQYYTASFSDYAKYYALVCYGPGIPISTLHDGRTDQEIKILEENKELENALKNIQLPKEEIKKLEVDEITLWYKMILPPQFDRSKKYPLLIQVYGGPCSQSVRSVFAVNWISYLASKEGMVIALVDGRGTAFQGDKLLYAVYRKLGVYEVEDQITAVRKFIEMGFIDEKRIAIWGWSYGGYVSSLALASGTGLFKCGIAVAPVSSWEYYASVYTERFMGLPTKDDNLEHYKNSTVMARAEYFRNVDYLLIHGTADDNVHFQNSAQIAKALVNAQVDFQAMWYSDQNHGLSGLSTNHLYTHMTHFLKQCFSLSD
Method: (§1) For the capture ELISA, the microplates were coated with mouse anti-His monoclonal antibody (Clontech) diluted to a concentration of 3 μg/ml in PBS, the plates were then blocked, FAP or BSA were diluted to a concentration of 2 μg/ml in PBS and added to the plates to be captured. The binding efficiency of the antibodies was then tested.
The EC₅₀ values were estimated by a non-linear regression using GraphPad Prism (San Diego, USA) software.

[2] = target: T1, recombinant human Fibroblast Activation …; experiment: direct ELISA: rFAP directly coated (FAP)
[3] = target: T2, bovine serum albumin (BSA) (bovine, UniProt P02769 25-607); experiment: direct ELISA: BSA coated directly on the plate [continued) F]
T2 construct: Negative control antigen in the ELISAs
T2 sequence (P02769 25-607 limits assumed): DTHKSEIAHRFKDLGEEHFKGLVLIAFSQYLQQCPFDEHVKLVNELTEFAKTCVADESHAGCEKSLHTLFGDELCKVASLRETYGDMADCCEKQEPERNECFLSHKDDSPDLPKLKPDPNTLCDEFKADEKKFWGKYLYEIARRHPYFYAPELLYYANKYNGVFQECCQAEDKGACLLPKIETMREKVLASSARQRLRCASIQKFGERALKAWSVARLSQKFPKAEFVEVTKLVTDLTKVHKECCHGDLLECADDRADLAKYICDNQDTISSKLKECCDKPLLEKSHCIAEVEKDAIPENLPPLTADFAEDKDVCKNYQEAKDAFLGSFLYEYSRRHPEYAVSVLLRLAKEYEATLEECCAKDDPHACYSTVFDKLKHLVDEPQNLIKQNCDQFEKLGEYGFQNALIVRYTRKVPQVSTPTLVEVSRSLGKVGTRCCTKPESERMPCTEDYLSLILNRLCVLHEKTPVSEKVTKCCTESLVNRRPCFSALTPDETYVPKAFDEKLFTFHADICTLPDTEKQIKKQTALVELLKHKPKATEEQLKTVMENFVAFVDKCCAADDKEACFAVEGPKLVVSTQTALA

[4] = target: T3, FAP peptide 125 (497-ALKNIQLPKEEIKKL-511) (human); experiment: pepscan, spotted 15-mer peptides
T3 construct: Linear 15-mer spotted on a nitrocellulose membrane
T3 peptide: ALKNIQLPKEEIKKL
Method: (§2) Binding capacity of the antibodies was tested on these peptides spotted onto a nitrocellulose membrane (JPT Peptide Technologies, Berlin, Germany) and using HRP-conjugated donkey anti-human IgG secondary antibody (Jackson immunoResearch, Newmarket, UK) followed by detection of HRP activity (FIGS. 4A and C). In brief, epitope mapping was performed using scans of overlapping peptides. The entire sequences of FAP were synthesized as a total of 188 linear 15-mer peptides with an 11 amino acid overlap between individual peptides. Those peptides were spotted onto nitrocellulose membranes (JPT Peptide Technologies, Berlin, Germany). The membrane was activated for 5 min in methanol and washed in TBS for 10 min at RT. Non-specific binding sites were blocked for 2 h at RT with Roti®-Block (Carl Roth GmbH+Co. KG, Karlsruhe, Germany). Human antibodies (1 μg/ml) were incubated in Roti®-Block for 3 h at RT. Binding of primary antibody was determined using HRP-conjugated donkey anti-human IgG secondary antibody. Blots were developed and evaluated using ECL and ImageQuant 350 detection (GE Healthcare, Otelfingen, Switzerland).

[5] = target: T4, FAP peptide 126 (501-IQLPKEEIKKLEVDE-515) (human); experiment: pepscan, spotted 15-mer peptides
T4 construct: Linear 15-mer spotted on a nitrocellulose membrane
T4 peptide: IQLPKEEIKKLEVDE
Method: as §2

[6] = target: T1, recombinant human Fibroblast Activation …; experiment: direct ELISA: rFAP coated directly on the plate, antibody titrated, OD 450 nm [continued) F]
[7] = target: T1, recombinant human Fibroblast Activation …; experiment: capture ELISA: His-tagged rFAP captured by coated anti-His antibody (anti-His+rFAP), antibody titrated, OD 450 nm [continued) E]
Method: as §1

[8] = target: T5, cFAP (mixture of three FAP peptides) (human); experiment: direct ELISA: coated mixture of three FAP peptides (cFAP)
T5 construct: A mixture of three separate peptides coated together, not a complex; The three chains are the three components; also called directly coated FAP peptides mixture
T5 peptide 1: HYIKDTVENAIQITS
T5 peptide 2: GWSYGGYVSSLALAS
T5 peptide 3: QVDFQAMWYSDQNHGL

[9] = target: T1, recombinant human Fibroblast Activation …; experiment: direct ELISA: rFAP directly coated
[10] = target: T2, bovine serum albumin (BSA); experiment: direct ELISA: BSA coated directly on the plate [continued) D]
[11] = target: T1, recombinant human Fibroblast Activation …; experiment: direct ELISA: rFAP coated directly on the plate, antibody titrated, OD 450 nm [continued) J]
[12] = target: T1, recombinant human Fibroblast Activation …; experiment: capture ELISA: His-tagged rFAP captured by coated anti-His antibody (anti-His+rFAP), antibody titrated, OD 450 nm [continued) I]
Method: as §1

[13] = target: T1, recombinant human Fibroblast Activation …; experiment: direct ELISA: rFAP coated directly on the plate, antibody titrated, OD 450 nm; the curve reaches no upper plateau [continued) H]
[14] = target: T2, bovine serum albumin (BSA); experiment: direct ELISA: BSA coated directly on the plate [continued) H]
[15] = target: T1, recombinant human Fibroblast Activation …; experiment: capture ELISA: His-tagged rFAP captured by coated anti-His antibody (anti-His+rFAP), antibody titrated, OD 450 nm; the curve reaches no upper plateau [continued) G]
Method: as §1

Binder | EC50 [1] | EC50 [2] | binding result [8] | other results
B1 | 0.272 nM | 3.54 nM | no binding | binding result [3]: no binding; binding result [4]: binds; binding result [5]: binds; EC50 [6]: 2.9 nM; EC50 [7]: 1.33 nM
B2 |  |  |  | binding result [9]: no binding; EC50 [8]: 0.12 nM
B3 | 0.044 nM | 0.096 nM | no binding | binding result [10]: no binding
B4 | 3.36 nM | 0.33 nM | no binding | 
B5 |  | 1.4 nM | no binding | 
B6 | 50.2 nM | 10.5 nM | no binding | 
B7 | 118 nM | 86.5 nM | no binding | EC50 [11]: 3.54 nM; EC50 [12]: 0.272 nM
B8 | 1.33 nM | 2.9 nM | no binding | EC50 [13]: 86.5 nM; binding result [14]: no binding; EC50 [15]: 118 nM
